Data from PMC4022466, “Spermatid Cyst Polarization in Drosophila Depends upon apkc and the CPEB Family Translational Regulator orb2”.

Target: T1, Orb2-RRM (GST-Orb2 C-terminus) (UniProt Q9VSR3 447-704)
T1 sequence: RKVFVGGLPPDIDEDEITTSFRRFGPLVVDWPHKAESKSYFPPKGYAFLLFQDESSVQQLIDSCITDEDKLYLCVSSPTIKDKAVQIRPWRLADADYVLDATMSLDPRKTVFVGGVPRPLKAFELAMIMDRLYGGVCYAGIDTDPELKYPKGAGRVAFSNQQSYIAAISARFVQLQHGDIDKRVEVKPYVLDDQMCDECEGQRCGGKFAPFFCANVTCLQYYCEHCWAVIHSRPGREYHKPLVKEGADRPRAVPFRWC
Assay: competition; 100-400 fold excess cold against RA-GS probe; 25 mM Tris pH 7.5, 10 mM EDTA (rest of buffer and temperature not in the material)
Conditions: protein: recombinant; tags: GST

B1: Comp-CPE (competitor A) (ssRNA)
RNA: ACUUUUGUUUUUAAUGCAUUCCAC
B1: binds.
